Data on one molecule can be found in PMC4694753 (Molecular Biology of the Cell, 2016).

The target in this assay is GFP-VASP (UniProt P50552 1-380). The assay can be described thus: co-IP.
Sequence of GFP-VASP (P50552 whole entry): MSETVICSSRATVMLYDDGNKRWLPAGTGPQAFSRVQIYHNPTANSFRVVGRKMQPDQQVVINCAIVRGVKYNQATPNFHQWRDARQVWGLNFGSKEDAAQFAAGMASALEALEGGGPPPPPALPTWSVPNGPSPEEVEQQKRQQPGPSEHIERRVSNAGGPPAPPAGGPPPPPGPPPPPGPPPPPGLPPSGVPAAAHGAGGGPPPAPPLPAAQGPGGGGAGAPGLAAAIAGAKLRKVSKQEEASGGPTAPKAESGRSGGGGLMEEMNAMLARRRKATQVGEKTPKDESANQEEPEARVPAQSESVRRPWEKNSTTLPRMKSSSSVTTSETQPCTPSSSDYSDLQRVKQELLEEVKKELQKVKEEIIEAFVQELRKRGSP

B1: endogenous GRASP65 (natural protein)
chain: not shown
On to B1, for which the “amount coimmunoprecipitated, % relative to GFP-Mena” value came out at 8.2 ± 3.3%.
